{
  "source": "the supplement of paper PMC9732359",
  "note": "± gives the uncertainty stated by the source.",
  "data": [
    {"test": "protein stability index of a GFP-peptide fusion (yeast GPS) (PSI 1-4); higher = more stable; sorted into four equal gates, so the index is relative within each strain", "settings": "pdr5∆", "how_it_was_run": "(§1)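 Tiled 17-residue yeast protein peptides were fused downstream of GFP in a plasmid that also expresses Cherry, and the pooled library was carried in yeast. Mid-log cultures in leucine-free medium were sorted into four equal gates by GFP/Cherry fluorescence ratio, and plasmids from each gate were PCR-amplified and Illumina-sequenced, with reads assigned to strains by barcodes. The protein stability index for each peptide was each gate's read frequency times its gate number, summed.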", "values": [
      {"sequence": "VNDNDERAARVVKGRVE [RPO31]", "protein stability index": "3.36 ± 0.15"},
      {"sequence": "VNDVELAFKKNEMLLKR [MTW1]", "protein stability index": "3.46 ± 0.14"}
    ]},
    {"test": "protein stability index of a GFP-peptide fusion (yeast GPS) (PSI 1-4); higher = more stable; sorted into four equal gates, so the index is relative within each strain", "settings": "san1∆", "how_it_was_run": "as §1", "values": [
      {"sequence": "VHMYHKSLALLGYNFDG [SNF5]", "protein stability index": "2.02 ± 0.08"},
      {"sequence": "VHNTVAAGNASSLPPGE [SNF5]", "protein stability index": "2.94 ± 0.06"},
      {"sequence": "VIEAKINHEDGFIETTE [RPN3]", "protein stability index": "1.3 ± 0.19"},
      {"sequence": "VIFKIRDRTSGQKLLAI [SRB4]", "protein stability index": "3.5 ± 0.11"},
      {"sequence": "VIFLSSLLTLVGSVTYQ [YJL039C/NUP192]", "protein stability index": "1.14 ± 0.28"},
      {"sequence": "VIRDSVTYTEHAKRKTV [HHF1]", "protein stability index": "1.44 ± 0.12"},
      {"sequence": "VISSGPLAAGNFVSEKG [RPC53]", "protein stability index": "3.14 ± 0.094"},
      {"sequence": "VIYRGPEPSHIDQVMMS [RET1]", "protein stability index": "3.19 ± 0.067"},
      {"sequence": "VKADVEKSLLPKIETNV [ISW2]", "protein stability index": "3.11 ± 0.062"},
      {"sequence": "VKDWLYDSRPLEEDSKK [PRP8]", "protein stability index": "2.8 ± 0.12"},
      {"sequence": "VKEIVLPLFYDLLNAAS [IRR1]", "protein stability index": "2.78 ± 0.036"},
      {"sequence": "VKKGPVRLPTKVLKIST [RPS20]", "protein stability index": "2.54 ± 0.058"},
      {"sequence": "VKLTYNSPSSALRALQE [YDL088C/ASM4]", "protein stability index": "2.62 ± 0.088"},
      {"sequence": "VKPHDEGSKSHPFGHAL [RPL27A]", "protein stability index": "2.88 ± 0.08"},
      {"sequence": "VKPQYDEIHIPAPSKPV [BRR2]", "protein stability index": "2.41 ± 0.084"},
      {"sequence": "VKQYNKKWPQFYAAVQK [SIN4]", "protein stability index": "1.55 ± 0.1"},
      {"sequence": "VKRRRDMLEHINLAMNE [SRB4]", "protein stability index": "1.14 ± 0.19"},
      {"sequence": "VKVSAAAGKANKQFAKF [RPS11A]", "protein stability index": "2.85 ± 0.065"},
      {"sequence": "VLAAQSIGEPATQMTLN [RPO21]", "protein stability index": "2.87 ± 0.042"},
      {"sequence": "VLAGDTRNITDYSINSR [PRE7]", "protein stability index": "3.22 ± 0.061"},
      {"sequence": "VLCLTRSSYMLELVNTP [YCG1]", "protein stability index": "1.77 ± 0.099"},
      {"sequence": "VLDHQRAIPFRRFNSSI [RPL17A]", "protein stability index": "1.67 ± 0.15"},
      {"sequence": "VLFITPDIVGHEFTLSF [BRR2]", "protein stability index": "2.18 ± 0.055"},
      {"sequence": "VLGIKVKIMRDPAKSRT [RPS3]", "protein stability index": "2.98 ± 0.049"},
      {"sequence": "VLKSHSNDFEEGSTIRY [YMR129W/POM152]", "protein stability index": "2.93 ± 0.067"},
      {"sequence": "VLNMLYWVPDWDGVIPT [RPO21]", "protein stability index": "2.92 ± 0.055"},
      {"sequence": "VLPIFTTVFFSRQKSGL [YML031W/NDC1]", "protein stability index": "1.14 ± 0.095"},
      {"sequence": "VLQPLLPRELPKLLDAL [SNU114]", "protein stability index": "2.73 ± 0.11"},
      {"sequence": "VLRLRGALVDRTQPWSI [RPS0A]", "protein stability index": "2.52 ± 0.067"},
      {"sequence": "VLSIPPANHLQSDFCLS [YGL100W/SEH1]", "protein stability index": "2.52 ± 0.11"},
      {"sequence": "VLTAAGVERLIFYPDEY [PRE3]", "protein stability index": "2.9 ± 0.074"},
      {"sequence": "VMPVPNVRSSVLQKVIE [SKP1]", "protein stability index": "2.38 ± 0.052"},
      {"sequence": "VMRNTYNTRKNAVTAAA [GAL11]", "protein stability index": "2.11 ± 0.07"},
      {"sequence": "VMWGKVTRTHGNSGVVR [RPL33A]", "protein stability index": "2.97 ± 0.051"},
      {"sequence": "VNCLELLINTNFNKFFK [PCI8]", "protein stability index": "1.96 ± 0.065"},
      {"sequence": "VNDNDERAARVVKGRVE [RPO31]", "protein stability index": "3.15 ± 0.25"},
      {"sequence": "VNDVELAFKKNEMLLKR [MTW1]", "protein stability index": "3.4 ± 0.14"}
    ]},
    {"test": "protein stability index of a GFP-peptide fusion (yeast GPS) (PSI 1-4); higher = more stable; sorted into four equal gates, so the index is relative within each strain", "settings": "ubr1∆", "how_it_was_run": "as §1", "values": [
      {"sequence": "VHMYHKSLALLGYNFDG [SNF5]", "protein stability index": "2.02 ± 0.05"},
      {"sequence": "VHNTVAAGNASSLPPGE [SNF5]", "protein stability index": "2.75 ± 0.077"},
      {"sequence": "VHPVNEREPVPLGILHI [RRP45]", "protein stability index": "2.15 ± 0.19"},
      {"sequence": "VIEAKINHEDGFIETTE [RPN3]", "protein stability index": "1.13 ± 0.083"},
      {"sequence": "VIFKIRDRTSGQKLLAI [SRB4]", "protein stability index": "3.33 ± 0.16"},
      {"sequence": "VIFLSSLLTLVGSVTYQ [YJL039C/NUP192]", "protein stability index": "1.2 ± 0.13"},
      {"sequence": "VIRDSVTYTEHAKRKTV [HHF1]", "protein stability index": "2.03 ± 0.051"},
      {"sequence": "VISSGPLAAGNFVSEKG [RPC53]", "protein stability index": "2.48 ± 0.078"},
      {"sequence": "VIYRGPEPSHIDQVMMS [RET1]", "protein stability index": "2.77 ± 0.088"},
      {"sequence": "VKADVEKSLLPKIETNV [ISW2]", "protein stability index": "2.92 ± 0.088"},
      {"sequence": "VKEIVLPLFYDLLNAAS [IRR1]", "protein stability index": "2.69 ± 0.049"},
      {"sequence": "VKKGPVRLPTKVLKIST [RPS20]", "protein stability index": "2.37 ± 0.064"},
      {"sequence": "VKLTYNSPSSALRALQE [YDL088C/ASM4]", "protein stability index": "2.03 ± 0.038"},
      {"sequence": "VKPHDEGSKSHPFGHAL [RPL27A]", "protein stability index": "3.1 ± 0.047"},
      {"sequence": "VKPQYDEIHIPAPSKPV [BRR2]", "protein stability index": "1.83 ± 0.093"},
      {"sequence": "VKQYNKKWPQFYAAVQK [SIN4]", "protein stability index": "1.68 ± 0.047"},
      {"sequence": "VKRRRDMLEHINLAMNE [SRB4]", "protein stability index": "1.2 ± 0.078"},
      {"sequence": "VKVSAAAGKANKQFAKF [RPS11A]", "protein stability index": "2.93 ± 0.044"},
      {"sequence": "VLAAQSIGEPATQMTLN [RPO21]", "protein stability index": "2.91 ± 0.048"},
      {"sequence": "VLAGDTRNITDYSINSR [PRE7]", "protein stability index": "3.24 ± 0.058"},
      {"sequence": "VLAQYHEAKERIRQKEV [SNF6]", "protein stability index": "3.4 ± 0.18"},
      {"sequence": "VLCLTRSSYMLELVNTP [YCG1]", "protein stability index": "1.98 ± 0.087"},
      {"sequence": "VLDHQRAIPFRRFNSSI [RPL17A]", "protein stability index": "1.4 ± 0.13"},
      {"sequence": "VLFITPDIVGHEFTLSF [BRR2]", "protein stability index": "2.3 ± 0.04"},
      {"sequence": "VLGIKVKIMRDPAKSRT [RPS3]", "protein stability index": "3.16 ± 0.037"},
      {"sequence": "VLKSHSNDFEEGSTIRY [YMR129W/POM152]", "protein stability index": "2.88 ± 0.068"},
      {"sequence": "VLNMLYWVPDWDGVIPT [RPO21]", "protein stability index": "3.16 ± 0.038"},
      {"sequence": "VLPIFTTVFFSRQKSGL [YML031W/NDC1]", "protein stability index": "1.11 ± 0.077"},
      {"sequence": "VLQPLLPRELPKLLDAL [SNU114]", "protein stability index": "2.6 ± 0.096"},
      {"sequence": "VLRLRGALVDRTQPWSI [RPS0A]", "protein stability index": "3.08 ± 0.031"},
      {"sequence": "VLSIPPANHLQSDFCLS [YGL100W/SEH1]", "protein stability index": "2.59 ± 0.044"},
      {"sequence": "VLTAAGVERLIFYPDEY [PRE3]", "protein stability index": "2.95 ± 0.11"},
      {"sequence": "VLVSMGSSNKAVVQTVK [YJL039C/NUP192]", "protein stability index": "1.34 ± 0.19"},
      {"sequence": "VMPVPNVRSSVLQKVIE [SKP1]", "protein stability index": "2.35 ± 0.045"},
      {"sequence": "VMRNTYNTRKNAVTAAA [GAL11]", "protein stability index": "1.97 ± 0.036"},
      {"sequence": "VMWGKVTRTHGNSGVVR [RPL33A]", "protein stability index": "2.98 ± 0.07"},
      {"sequence": "VNAITVAQQQVQRQIEQ [SNF5]", "protein stability index": "3 ± 0.17"},
      {"sequence": "VNCLELLINTNFNKFFK [PCI8]", "protein stability index": "1.99 ± 0.064"},
      {"sequence": "VNDNDERAARVVKGRVE [RPO31]", "protein stability index": "3.4 ± 0.091"},
      {"sequence": "VNDVELAFKKNEMLLKR [MTW1]", "protein stability index": "3.11 ± 0.066"}
    ]}
  ]
}
